{"source": "paper PMC6200708", "about": "“Tannerella forsythia Tfo belongs to Porphyromonas gingivalis HmuY-like family of proteins but differs in heme-binding properties” (Bioscience Reports, 2018)", "key": {"HmuY": {"biological_target": "HmuY (Porphyromonas gingivalis, UniProt A2BCY8)", "experiment": "UV-visible difference-spectrum heme titration of purified protein, one-site model; CD and MCD", "type": "binding"}, "[1]": {"biological_target": "Porphyromonas gingivalis A7436 HmuY protein (Porphyromonas gingivalis A7436)", "experiment": "SDS/PAGE; purified protein run on SDS/PAGE; samples solubilized at 37°C for 1 h or at 100°C for 5 min"}, "[2]": {"biological_target": "Porphyromonas gingivalis A7436 HmuY protein (Porphyromonas gingivalis A7436)", "experiment": "SEC; holo protein (with heme), under oxidizing conditions"}, "[3]": {"biological_target": "Tannerella forsythia ATCC 43037 Tfo protein (Tannerella forsythia ATCC 43037)", "experiment": "SEC; holo protein (with heme), under reducing conditions"}}}
{"molecule": "C=CC1=C(C)C2=Cc3c(C=C)c(C)c4[n]3[Fe][n]3c(c(C)c(CCC(=O)O)c3=CC3=NC(=C4)C(C)=C3CCC(=O)O)=CC1=N2", "note": "[heme]", "values": [{"measurement": "Kd", "setting": "HmuY", "result": "< 1", "unit": "nM"}]}
{"molecule": "Porphyromonas gingivalis A7436 HmuY protein (natural protein)", "values": [{"measurement": "stoichiometry N", "setting": "[1]", "result": 2}, {"measurement": "stoichiometry N", "setting": "[2]", "result": 2}]}
{"molecule": "Tannerella forsythia ATCC 43037 Tfo protein (natural protein)", "values": [{"measurement": "stoichiometry N", "setting": "[3]", "result": 2}]}
